Data as given in paper PMC10397247.

Experiments:
Assay in all cases: two-hybrid library CCNG1;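 further: natural log of median RNA to DNA barcode read ratio; higher means stronger binding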
[1] = target: T1, 4H2568-bN
T1 chain: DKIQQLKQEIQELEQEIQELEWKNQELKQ

[2] = target: T2, 4H2619-bN
T2 chain: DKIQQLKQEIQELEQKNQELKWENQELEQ

[3] = target: T3, 4H2745-bN
T3 chain: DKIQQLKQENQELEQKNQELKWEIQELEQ

[4] = target: T4, 4H344-bN
T4 chain: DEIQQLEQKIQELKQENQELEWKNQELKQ

[5] = target: T5, 4H363-bN
T5 chain: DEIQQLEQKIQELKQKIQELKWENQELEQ

[6] = target: T6, 4H3907-bN
T6 chain: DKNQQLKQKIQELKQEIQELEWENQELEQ

[7] = target: T7, 4H3961-bN
T7 chain: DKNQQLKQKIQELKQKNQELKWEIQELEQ

[8] = target: T8, 4H470-bN
T8 chain: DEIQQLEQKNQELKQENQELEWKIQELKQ

[9] = target: T9, 4H754-bA
T9 chain: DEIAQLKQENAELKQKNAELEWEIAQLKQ

[10] = target: T10, 4H780-bA
T10 chain: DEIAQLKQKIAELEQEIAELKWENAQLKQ

[11] = target: T11, 4H797-bA
T11 chain: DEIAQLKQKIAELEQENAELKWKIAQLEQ

[12] = target: T12, 4H855-bA
T12 chain: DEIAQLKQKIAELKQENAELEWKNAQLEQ

[13] = target: T13, 4H883-bA
T13 chain: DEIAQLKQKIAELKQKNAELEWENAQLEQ

[14] = target: T14, 4H908-bA
T14 chain: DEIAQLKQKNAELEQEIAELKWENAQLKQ

[15] = target: T15, 4H908-bN
T15 chain: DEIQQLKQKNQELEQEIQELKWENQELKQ

[16] = target: T16, 4H918-bA
T16 chain: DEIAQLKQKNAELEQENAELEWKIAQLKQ

[17] = target: T17, 4H953-bA
T17 chain: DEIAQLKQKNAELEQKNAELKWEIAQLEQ

[18] = target: T18, 4H967-bA
T18 chain: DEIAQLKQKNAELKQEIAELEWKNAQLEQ

[19] = target: T19, 4H968-bA
T19 chain: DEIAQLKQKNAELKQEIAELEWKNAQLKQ

[20] = target: T20, P11mS
T20 chain: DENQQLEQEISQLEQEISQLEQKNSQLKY

| Binder | interaction score [1] | interaction score [2] | interaction score [3] | interaction score [4] | interaction score [5] | interaction score [6] | interaction score [7] | interaction score [8] | interaction score [9] | interaction score [10] | interaction score [11] | interaction score [12] | interaction score [13] | interaction score [14] | interaction score [15] | interaction score [16] | interaction score [17] | interaction score [18] | interaction score [19] | interaction score [20] |
| --- | --- | --- | --- | --- | --- | --- | --- | --- | --- | --- | --- | --- | --- | --- | --- | --- | --- | --- | --- | --- |
| DKIQQLKQEIQELEQEIQELEWKNQELKQ [4H2568-bN] | 0.798 | -0.118 | -1.2 | -0.22 | 0.932 | 0.402 | 1.52 | 0.618 | – | – | – | – | – | – | – | – | – | – | – | – |
| DEIAQLKQENAELKQKNAELEWEIAQLKQ [4H754-bA] | – | – | – | – | – | – | – | – | 1.57 | -1.48 | -0.233 | -0.914 | -0.374 | -0.879 | -0.94 | -0.579 | 0.496 | -0.575 | -0.368 | -1.53 |
